From patent publication US20260028403A1 (Zymeworks, published 2026)

B1: v34914 (trispecific antibody, human IgG1, lambda, L234A L235A)
heavy 1: not shown
heavy 2: EIVLTQSPATLSLSPGERVTMSCSASSSVSYMHWYQQKPGQAPRLWIYDTSKLASGVPARFSGSGSGTDYTLTISSVEPEDNAVYYCQQWSGHPLTFGQGTKVEIKGGGGSGGGGSGGGGSGGGGSQVQLVQSGAEVKKPGASVKISCKASGYSFTGYTMNWVRQAPGQGLEWIGLITPYSGASSYAQKFQGRATLTVDKSTSTAYMELSSLRSEDTAVYYCARGGYDGRGFDYWGQGTNVTVSSAAEPKSSDKTHTCPPCPAPEAAGGPSVFLFPPKPKDTLMISRTPEVTCVVVSVSHEDPEVKFNWYVDGVEVHNAKTKPREEQYNSTYRVVSVLTVLHQDWLNGKEYKCKVSNKALPAPIEKTISKAKGQPREPQVYVLPPSRDELTKNQVSLLCLVKGFYPSDIAVEWESNGQPENNYLTWPPVLDSDGSFFLYSKLTVDKSRWQQGNVFSCSVMHEALHNHYTQKSLSLSPG
light: NFMLTQPHSVSESPGKTVTISCKRNTGNIGSNYVNWYQQHEGSSPTTIIYRNDKRPDGVSDRFSGSIDRSSKSASLTISNLKTEDEADYFCQSYSSGFIFGGGTKLTVLGQPKAAPSVTLFPPSSEELQANKATLVCLISDFYPGAVTVAWKADSSPVKAGVETTTPSKQSNNKYAASSYLSLTPEQWKSHRSYSCQVTHEGSTVEKTVAPTECS
notes: Het Fc, FcKO; also called CD28xCD3xMSLN trispecific
B2: v34916 (trispecific antibody, human IgG1, lambda, L234A L235A)
heavy 1: not shown
heavy 2: B1 heavy 2
light: NFMLTQPHSVSESPGKTVTISCKRNTGNIGSNYVNWYQQHEGSSPTTIIYRNDKRPDGVSDRFSGSIDRSSKSASLTISNLKTEDEADYFCQSYSSGFIFGGGTKLTVLGQPKAAPSVTLFPPSSEELQANKATLVCLISDFYPGAVTVAWKADSSPVKAGVETTTPSKQSNNKYAASSYLSLTPEQWKSHRSYSCQVTHEGSTVEKTVAPTECSGGGGSGDIQMTQSPSSLSASVGDRVTITCRASESVEYYVTSLMQWYQQKPGKAPKLLIYAASNVDSGVPSRFSGSGSGTDFTLTISSLQPEDIATYYCQQSRKVPFTFGGGTKVEIKGGGGSGGGGSGGGGSGGGGSQVQLQESGPGLVKPSETLSLTCAVSGFSLTSYGVHWIRQPPGKGLEWLGVIWPGGGTNFNSALMSRLTISEDTSKNQVSLKLSSVTAADTAVYYCARDRAYGNYLYAMDYWGQGTLVTVSS
notes: CD28 scFv on C-terminus of the CD3 Fab light chain; Het Fc, FcKO; also called CD3xCD28xMSLN trispecific

Experiments:
[1] = target: T1, Recombinant MSLN his tag protein (R&D systems) (UniProt Q13421 296-580, limits assumed); test: SPR Biacore T200, MSLN-his on CM5, construct flowed, 1:1 model
T1 construct: his tag; also called mesothelin

[2] = target: T2, Recombinant human/cynomolgus/rhesus macaque CD28 mouse IgG2a Fc fusion protein (Acro Biosystems) (human/cynomolgus/rhesus macaque, UniProt P10747 19-152); test: SPR Biacore T200, CD28-mIgG2a Fc on CM5, construct injected, 1:1 model;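 also: fc fusion captured by amine coupling, run at 25 °C in HEPES buffer pH 7.4, association 140-500 s then dissociation 600-1200 s, values averaged over three independent runs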
T2 construct: bought; also called huCD28

[3] = target: T3, Recombinant human CD3 epsilon/delta heterodimer, his tag protein (Acro Biosystems) (human, UniProt P07766 23-126; P04234 22-105); test: SPR Biacore T200, CD3 e/d-his on CM5, construct injected, 1:1 model;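 also: measured at 25 °C in HEPES-buffered saline with EDTA and Tween 20 at pH 7.4, values are means of three independent runs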
T3 construct: bought

Binder	Kd [1]	koff [1]	kon [1]	Kd [2]	koff [2]	kon [2]	Kd [3]	koff [3]	kon [3]
B1	5.39 nM	0.00197 s⁻¹	374000 M⁻¹ s⁻¹	122 nM	0.00849 s⁻¹	70200 M⁻¹ s⁻¹	81.1 nM	0.0191 s⁻¹	237000 M⁻¹ s⁻¹
B2	4.78 nM	0.00181 s⁻¹	388000 M⁻¹ s⁻¹	56.5 nM	0.000546 s⁻¹	13000 M⁻¹ s⁻¹	37.2 nM	0.0104 s⁻¹	291000 M⁻¹ s⁻¹
